Laboratory results reported in the RNAGym collection of RNA variant scans (doi:10.1073/pnas.2313332121).

B1: TPR t1 (parent)
chain: GACCAAUCUGCCCUCAGAGCUCGAGAACAUCUUCGGAUGCAGAGGAGGCAGGCUUCGGUGGCGCGAUAGCGCCAACGUCCUCAACCUCCAAUGCAUCCCACCACAUGAUGAUGCCUGAAGAGCCUUGGUUUUUUG

Variants of: B1
Test: polymerase ribozyme fitness, log enrichment relative to wild type (log ratio); higher = more active; in vitro selection for triplet polymerase activity
How it was run: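 To select mutant libraries of each subunit of a heterodimeric triplet polymerase ribozyme, built by PCR and transcribed, each was annealed with a biotinylated primer, partner subunit and triplets, then incubated frozen at −7 °C. Extended constructs were gel-excised, captured on streptavidin beads and amplified by RT-PCR, in one round carried out in triplicate. Illumina sequencing of input and output libraries kept genotypes with ≥10 input reads and ≥1 read per output. Fitness is the base-2 logarithm of genotype enrichment relative to wild-type enrichment, from inverse-variance-weighted replicate averages.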

Row | Variant | polymerase ribozyme fitness (log ratio)
1 | C49U C124A | 1.2
2 | A50G C62U C82A A121U | 1.97
3 | C49U U131A | -0.481
4 | A50C C62U C115U | -2.55
5 | A50G G69A A90C | -6.86
6 | A50C G60C U81G C86U G120C | -1.06
7 | A50C G63A U125G G127U | -2.41
8 | A50C G63U U81G G128C | -4.28
9 | C49U U129A | -1.47
10 | A50C C53G C86U C88U G107U A121U | -5.3
11 | C49U U59G | -1.24
12 | A50C C56A A66G | -2.8
13 | C49U G77A | 0.352
14 | C49U G77U | 0.0294
15 | C49U U132C | -0.889
16 | A50G C123U | 1.02
17 | C49U G58U C62G A119U C124U | -1.37
18 | C49U G61U U78G | -0.458
19 | C49U G63U | -2
20 | A50C C72U G135A | -1.52
21 | C49U G77C C124G U125C | -0.664
22 | C49U G57U G110C | -4.9
23 | A50G G60C C94U | -4.35
24 | A50C G52C C73U | -4.07

Row | Variant | polymerase ribozyme fitness (log ratio)
25 | A50C C115A | -1.39
26 | C49U U54C G117U G128A | -5.68
27 | C49U U92A | -3.99
28 | A50C C72G U87G G120C U131A | 0.442
29 | A50C A100C | -1.68
30 | A50C G61C | -3.35
31 | A50C G127A | -0.787
32 | A50C U55G G58C G61C U81A | 0.349
33 | C49U U106A | -0.703
34 | A50G C70U C72G | -3.42
35 | A50C C82A | -0.499
36 | A50G G57A C72U U96C C114U | -4.36
37 | A50G C53A C70G | -2.47
38 | A50C G61C G127A | -5.03
39 | A50C C101A | -1.83
40 | A50G C53G G60U C72U C101A G117A | -4.06
41 | C49U G110C | -5.17
42 | C49U G57A U96A | -3.31
43 | A50G C70U A111U | -4.72
44 | A50C A75G A95C C123U | 0.24
45 | C49U U96A U106A | -1.67
46 | A50G G60C C94U U129G | -3.05
47 | C49U G58C A111C | -0.939
48 | A50G C89G | -1.08

Row | Variant | polymerase ribozyme fitness (log ratio)
49 | C49U C123U | 1.01
50 | A50C G71U A121C | 0.855
51 | A50C G61U C79G | -2.93
52 | A50G C76G | -0.226
53 | A50G C76U | -0.383
54 | A50C C56G A105U G120C | -2.11
55 | A50C C88A | -1.03
56 | C49U G58C G60U C114U U129A | -5.08
57 | A50C G69U | -0.0602
58 | A50C G52U | -2.09
59 | A50C G71A G77U G120C | -1.85
60 | C49U U55A C62U C99U A111U | -7.19
61 | C49U G52C G63U C124A | -0.717
62 | C49U G60U U106A G127U U130G G135U | -1.71
63 | A50G C70G | -4.35
64 | A50G C70U | -0.709
65 | A50G C53A C72A | -0.193
66 | C49U G61A C79U C97G | -5.31
67 | A50G C56U G69C C123G C124G | -5.93
68 | C49U U126A | -1.95
69 | A50C C72G | -0.555
70 | A50C C72U | -0.602
71 | A50C C62A C98A A111U U112A | -6.58
72 | A50C U55G G58C G61C U81A C124A | 0.946

Row | Variant | polymerase ribozyme fitness (log ratio)
73 | A50C G69C C104U | -1.11
74 | C49U G63A U92G A121G | -3.84
75 | A50G C56A | -0.266
76 | C49U G51U U78G C79G U109G C124G | -6.06
77 | C49U G93A G122A | -1.37
78 | C49U G63C C85U | -1.05
79 | A50G C62A U67A A84G C97U G110C A118G | -8.94
80 | A50C C53U A84G | -0.439
81 | A50G C101U | -0.187
82 | C49U U81G | -3.78
83 | A50G C73U | 0.871
84 | A50C A90U | -2
85 | A50C A90C | -2.1
86 | A50C C73G | -1.15
87 | C49U G71A G117C | -6.24
88 | C49U G77A C123G | 1.03
89 | C49U G52C U55C | -1.55
90 | A50C C70A C82G A84C | -2.37
91 | C49U G52A G71C | -5.43
92 | C49U G63C G93C C124U | -0.998
93 | A50C C123G | 0.334
94 | A50G G63U | -1.73
95 | C49U U92G A121G | -1.61
96 | A50C G69A G120A G127A | -3.94

Row | Variant | polymerase ribozyme fitness (log ratio)
97 | A50G C64U C88G | -0.539
98 | C49U G51U C62U C80A | -3.6
99 | C49U U116G | -2.41
100 | C49U G60C G127A | -2.38
101 | C49U G57C | -0.696
102 | A50C A121U | 2.16
103 | A50C C76U C88U | -1.73
104 | A50G C73A C82U | -0.0319
105 | A50G G57C G61U C88G | -3.3
106 | A50C A111C C115U U129A | -6.02
107 | A50C G71U U87A | -1.95
108 | C49U G77U G113U G122U C124A | -3.66
109 | A50C G110U | -1.99
110 | A50C C72U U81G C85A | -1.34
111 | C49U G52A C56G | -2.31
112 | A50C C72U G93U U112G | -2.29
113 | C49U G61C | -1.88
114 | C49U G61A | -0.0564
115 | A50G C53U U129C U130G | -0.774
116 | C49U G113C | -3.45
117 | A50G G77A | -0.057
118 | C49U G127A | -1.64
119 | A50G A84C C114G | -2.83
120 | C49U G58U C62G | -1.16

Row | Variant | polymerase ribozyme fitness (log ratio)
121 | C49U G117U | -2.67
122 | A50G C62A | -0.949
123 | A50C G71U | 0.242
124 | C49U G107A | -3.94
125 | C49U G51A G63C | -3
126 | A50C G69U U125A | 0.0264
127 | A50C U87A | -0.514
128 | C49U G93A G110A | -2.9
129 | A50C A111C | 0.0167
130 | A50G G69U | 0.675
131 | A50G G63A U112A G122A | -1.39
132 | A50C U55G G58C U81A C124A | 1.51
133 | A50C C94U C123U | 1.49
134 | A50C G63U U81A U129A | -2.04
135 | A50C G60C | -1.73
136 | C49U U130C | 0.0143
137 | C49U U130A | -0.901
138 | A50C U87G C98U | -0.87
139 | C49U U106A U116G | -4.54
140 | A50G C53G G61A C64U U116A G117A | -4.58
141 | A50G C72G | -0.204
142 | C49U G93A C101U G127C | -2.96
143 | C49U G63A C80U G120A | -5.11
144 | C49U G113U C114U | -2.07

Row | Variant | polymerase ribozyme fitness (log ratio)
145 | A50C C53G C73A U126G | -2.99
146 | A50C U92A | -3.05
147 | A50G C82U | 0.198
148 | A50G C53G G60U C72U C101A | -3.8
149 | A50G C53A C73U | 0.0786
150 | A50G G71C G113U U126A | -6
151 | A50C G120C | 0.605
152 | A50C G120A | 0.456
153 | A50G G61C | -3.07
154 | A50G C99U C115U G117C | -6.47
155 | A50C C70U U116G G117A | -4.23
156 | C49U G135U | -1.61
157 | A50C A74U | -1.45
158 | A50G C104U | -0.208
159 | A50G C104A | -1.49
160 | A50G G113U | -2.68
161 | A50G G113C | -1.84
162 | C49U U78G U96A G113A C115A | -5.23
163 | C49U G93A C97U U116C | -3.84
164 | A50C C89A | -2.41
165 | C49U U55G G63A | -1.98
166 | A50G C62U U87A | -0.164
167 | C49U U109G | -5.61
